Assay results from patent US20230066984A1, “New Carbon Glycoside Glycosyltransferase and Use Thereof” (CAS Center for Excellence in Molecular Plant Sciences, priority 2020, published 2023).

Test: In vitro functional identification of C-glycosyltransferases by HPLC, phloretin as glycosyl receptor
Format: biochemical
Conditions: 0.1 mM phloretin, 0.3 mM UDP glucose, crude enzyme, 37° C., 2 h, HPLC (FIG. 1A)
Procedure: The recombinant plasmid was transformed into competent cells of Escherichia coli BL21 (DE3), and cultured overnight at 37° C. in solid LB medium (kanamycin 50 μg/mL). Single colony was transferred to a 2 mL LB liquid medium (containing 50 μg/ml kanamycin) and incubated overnight. The bacterial fluid was transferred to a new 100 ml LB liquid medium with antibiotics and incubated at 37° C. and 250 r/min until OD600 reached 0.5-0.6. The culture was cooled down to 16° C. in a water bath. Then inducer IPTG was added at a final concentration of 0.1 mM. The mixture was cultured at 16° C. for low temperature induction and 180 r/min for 20 h. The BL21(DE3) recombinant strain carrying the pET28a empty plasmid was used as a blank control, and the culture operation was the same as above. The bacteria were harvested by centrifugation (6000 r/min, 5 min), re-suspended in 1 mL of lysis buffer Buffer A (20 mM Tris-HCl, pH 8.0; 100 mM NaCl), and DNase was added to a final concentration of 5 μg/mL, Mg^2+ to a final concentration of 2 mM; protease inhibitor PMSF to a final concentration of 1 mM; the bacteria were incubated on ice for 30 min and then sonicated; refrigerated centrifugation (10,000 rpm, 30 min, 4° C.), filtered through a 0.2 µm filter membrane to obtain the supernatant crude enzyme solution, and added 20% glycerol for cryopreservation (−20° C.).
The in vitro enzyme catalytic assay system is 100 μL. The reaction system includes: 0.1 mM glycosyl receptor (phloretin or 2-hydroxynaringenin), 0.3 mM UDP glucose, 25 μL supernatant crude enzyme solution, and Buffer A is used to make up the volume to 100 μL, and react at 37° C. for 2 h. After the reaction was completed, an equal volume of methanol was added to terminate the reaction, and HPLC was used for product analysis. HPLC detection conditions: chromatographic column: reverse phase C18 column [SilGreen ODS column (ø 4.6×250 mm)], detection wavelength 280 nm; mobile phase: acetonitrile (0.1% formic acid)-water (0.1% formic acid) mixture gradient elution, with increased ratio from 5:95 to 100:0 within 0 to 20 min, and the flow rate was 1 mL/min.

Row | Molecule | conversion of substrate phloretin to C-glycosylated product (Nothofagin) | 5′ C-glycosylation of 3′-glycosylated phloretin giving phloretin-3′,5′-C-diglucoside
1 | ZmCGT4: C-glycosyltransferase from maize, SEQ ID NO: 14 (protein, Zea mays) MSSPAPSSASRSSHGSRGSPRIVLFPSAGMGHLVPFTRLAVALSAGHGCEISLLTALPTVSSAESRHIAALYAAFPAIRQLDLRFAPFDASSEFPGADPFYLRYEALRRCAPSLLGPLLAGAGASALVVDMALASVAIPVARELHVPCFVFFTASATMLSFKAYFPTYLDDVGAGHGVGDVDVPGVYRIPSSSVPQALHDPDNIFTRQFVANGRALATADGLLVNAFHAMEPEAVEALQGRFVLSVLPPVFAVGPLMPVNDLRETGEAAQKQGNYRAWLDEQPPRSVVYVSFGSRKALPKDQIKELAAGLEACGHRFLWVVKGAVVDRDDAGELSELLGEAFLRRVHGRGLVTKSWVEQEEVLRHPAVALFVSHCGWNSVTEAVSSGVPVLAWPRFADQRVNARVVVRCGLGVWADQWSWEGEEALVRAEEITALVMEAMEDDAMAVKAANVREAASRAVVDGGTSYRSLAAFVRRCTA | can convert the substrate phloretin to a product having a shorter retention time | –
2 | ZmCGT5: C-glycosyltransferase from maize, SEQ ID NO: 15 (protein, Zea mays) MSSPAPSSPSRSSHGSRSSPRIVLFPSAGMGHLVPFTRLAVALSAGHGCDISLVTALPTVSSAESRHIAALYAAFPAIRQLDLRFAPFDASSEFPGADPFYLRYEALRRCAPSLLGPLLAGAGASALVVDMALASVAIPVARELHVPCFVFFTASATMLSFKAYFPTYLDDVGAGHGVGDVDVPGVYRIPSSSVPQALHDPDNIFTRQFVANGRALATADGLLVNAFHAMEPEAVEALQGRFVLSVLPPVFAVGPLMPVNDLRETGEAAQKQGNYRAWLDEQPPRSVVYVSFGSRKALPKDQIKELAAGLEACGHRFLWVVKGAVVDRDDAGELSELLGEAFLRRVHGRGLVTKSWVEQEEVLRHPAVALFVSHCGWNSVTEAVSSGVPVLAWPRFADQRVNARVVVRCGLGVWADQWSWEGEEALVRAEEITALVMEAMEDDAMAVKAANVREAASRAVVDGGTSYRSLAAFVRRCTA | can convert the substrate phloretin to a product having a shorter retention time | –
3 | TaCGT1-D: C-glycosyltransferase from wheat, SEQ ID NO: 10 (protein, listed as Triticum aestivum) MPTSGDASGALPHPHVVLLPSAGMGHLVPFSRLAVSLSSPGHGCGVSVATVLPTVSSAESAHLDALFGACPAVRRLDFHLAPFDASEFPGADPFFLRFEAMRRSAPLLGPLLAGAGASALVTDIALASVVIPVARDLRLPCYVLFTASAAMLSLCVHFPAYLDANAGGPVGDVGIPGVYRVPKASIPQALHHPEHLFTQQFVANGRELAKADGLLVNSFDAFEPEAIAALRNGSVAAGFPPVFSVGPLAPVSFSASEPPENQADYMRWLEAQPARSVVYVSFGSRKAISKDQLRELAVGLEASGHRFLWVVKSTVVDRDDEAELSELLGEGFLERVQGRGMVTKGWVEQEEVLKQESIGLFISHCGWNSVTEAAANGLPVLAWPRFGDQRVNAGVVARSGLGVWEERWSWEGEEGTVSGHNIAEKVKTVMADKTVRNKAVSVQDAAAEAVADGGTSYRSLAQFVQRCRDLSVSK | can convert the substrate phloretin to a product having a shorter retention time | can catalyze the glycosylation of the 3′-glycosylated phloretin at the 5′ position
4 | TaCGT2-D: C-glycosyltransferase from wheat, SEQ ID NO: 13 (protein, listed as Triticum aestivum) MASSSRDDRAGAAAPRPRIVLIPSAGMGHLAPFSRLAAALSSGHTCNVSLVTVLPTVSSAESGHLDALFAAFPAVRRLDFQLPPLDAPELSGADPFYVHYEATRRSARLLAPLLAAADASALVADISLASVLIPVASELRLPCYVFFTASATMFSFYAYYPTYLDAAGAGDADVPGVYRIPKSSFPQALHDRNNLFTQQFVANGQSLSKADGLLINTFDALEPEAVTALRQGSVVPGFPPVFNVGPLSPVSFPARASSDYSAWLDAQPERSVVYVSFGSRKALARDQLSELADGLEASGCRFLWVVKGTVVDKDDGAELSELLGEGFLQRVSGRALVTKAWVEQGEVLKHPAIGMFVSHCGWNSLTEAFASGVPVLAWPRFADQRVNAGIVARRGAGVWVERWSWEGDDGVVKGEEIAEKVKSVMADEMLRRSSTVVREAAMTAVAGGGTSYRSLAELVARCCDGSASNAPSEA | can convert the substrate phloretin to a product having a shorter retention time | –
5 | BdCGT1: C-glycosyltransferase from Brachypodium distachyo, SEQ ID NO: 16 (protein, Brachypodium distachyon) MPTSGDGPTSQPHVVLLPSAGMGHLVPFSRLAVALSSAHGCDVSLVTVLPTVSSAESSHLEALFGAFPAVRRLEFHLADFDASEFPNADPFFLRFEAMRRSAPLLLGPLLARASATALVTDIALSSVVIPVAKQLRLPCYVLFTASAAMLSLCVHFPAYLDANGNGLVGDVDIPGVYQIPKASVPQALHDPKHLFTRQFVANGRELAKSDGVLVNSFDAFEPEAIAALREGAVSAAGFFPPVFSVGPLAPVSFPAGNNNRADYIQWLEAQPARSVVYVSFGSRKAVARDQLRELAAGLEASGHRFLWVVKSTVVDRDDDADLGELLGEGFLERVQGRGMVTKGWVEQEDVLKQESVGLFISHCGWNSVTEAAAGGLPVLAWPRFGDQRVNAGVVARSGLGVWVDSWSWEGEEGVVSGESIAEKVKAVMGDEIARNKAVSVRDAAAKAVADGGTSYRNLARFAQRCRDGRVRE | can convert the substrate phloretin to a product having a shorter retention time | –
6 | TaCGT2-A: C-glycosyltransferase from wheat, SEQ ID NO: 11 (protein, listed as Triticum aestivum) MASSSRDDRAGAAAPRPRIVLLPSAGMGHLAPFSRLAAALSSGHACDVSLVTVLPTVSSAESGQLDALFAAFPAVRRLDFHLPPLDAPELSGADPFYVHYEATRRSARLLAPLLAAADASALIADISLASVLIPVASELRLPCYVFFTASATMFSFYAYYPTYLDATGAGDADVPGVYRIPKSSFPQALHDRNNLFTQQFVANGRSLSKADGLLINTFDDLEPEAVTALRQGSVVPGFPPVFTVGPLSPVSFPARASSDYSAWLDAQPERSVVYVSFGSRKALARDQLSELADGLEASGCRFLWVVKGAVVDKDDGAELSELLGEGFLQRVSGRALVTKAWVEQGEVLKHPAIGMFVSHCGWNSLTEAFATGVPVLAWPRFADQRVNAGIVARCGAGVWVERWSWEGDDGVVKGEEIAEKVKSVMADEMLRRSSTVVREAATTAVAGGGTSYRSLAELVARCCHGSALQ | can convert the substrate phloretin to a product having a shorter retention time | –
7 | TaCGT2-B: C-glycosyltransferase from wheat, SEQ ID NO: 12 (protein, listed as Triticum aestivum) MASSPRDDRAGAAAPRPRIVLLPSASMGHLAPFSRLAAALSSGHACDVSLVTVLPTVSSAESGQLDALFAAFPAVRRLDFQLPPLDAPELSGADPFYVHYEATRRSARLLAPLLAAADASVLVADISLASVLIPVASELRLPCYVFFTASATMFSFYAYYPTYLDAAGAGDADVPGVYRIPKSSFPQALHDRNNLFTQQFVANGRSLSKADGLLINTFDALEPEAVTALRQGSVVPGCPPVFTVGPLSPVSFPARASADYSACLDAQPERSVVYVSFGSRKALARDQLSELADGLEASGCRFLWVVKGAVVDKDDGAELSELLGEGFLQRVSGRALVTKAWVEQGEVLKHPAIGMFVSHCGWDSLTEAFATGVPVLAWPRFADQRVNAGIVARCGAGVWVERWSWEGDEGVVKGEEIAEKVKSVMANEMLRRSSTMVREAAMTAVAGGGTSYRSLAELVARCCDGSASQ | can convert the substrate phloretin to a product having a shorter retention time | –
